Measurements reported in publication PMC3990689, “Identification and Characterization of ABA Receptors in Oryza sativa” (PLoS ONE, 2014).
Values belong to the molecule of their own block, whether it stands above or below them.

Columns and labels:
OsPYL2 = biological target: T1, OsPYL2 (Oryza sativa, UniProt Q5Z8S0); experiment: isothermal titration calorimetry; format: binding
T1 construct: gene PYL9; recombinant, E. coli BL21(DE3), pET-15b, Ni-NTA; mainly dimer; residues named: K74, F76, V98, L102, P103, A104, S107, E109, V125, L132, E162, F180, V184, N188
T1 sequence (Q5Z8S0 1-207): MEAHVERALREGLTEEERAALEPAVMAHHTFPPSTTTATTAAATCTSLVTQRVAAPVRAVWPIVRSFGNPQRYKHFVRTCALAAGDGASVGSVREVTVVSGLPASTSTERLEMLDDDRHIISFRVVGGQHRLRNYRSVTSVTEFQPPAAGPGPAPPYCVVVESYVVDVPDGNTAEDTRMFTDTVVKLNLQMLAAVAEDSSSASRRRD

OsPYL11 (with OsPP2C09) = biological target: T2, OsPYL11 (with OsPP2C09) (Oryza sativa, UniProt Q6I5C3); experiment: Ser/Thr phosphatase assay, inhibition of OsPP2C09 by receptor; format: biochemical; details: ABA ten fold of OsPYL; OsPP2C09 1.8 µM; read at 630 nm
T2 construct: gene PYL5; recombinant, E. coli BL21(DE3), pET-15b; OsPYL11 monomer; equals OsPYL/RCAR5 of earlier work; with Probable protein phosphatase 2C 9
T2 sequence (Q6I5C3 1-209): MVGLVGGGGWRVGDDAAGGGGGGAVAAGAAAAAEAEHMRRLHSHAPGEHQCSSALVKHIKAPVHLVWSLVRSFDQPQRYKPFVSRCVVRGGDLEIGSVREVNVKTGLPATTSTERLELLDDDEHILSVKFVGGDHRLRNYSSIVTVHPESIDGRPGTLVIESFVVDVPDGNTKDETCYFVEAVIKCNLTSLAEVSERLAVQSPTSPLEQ
T2 sequence (Q5N9N2 1-414 partner): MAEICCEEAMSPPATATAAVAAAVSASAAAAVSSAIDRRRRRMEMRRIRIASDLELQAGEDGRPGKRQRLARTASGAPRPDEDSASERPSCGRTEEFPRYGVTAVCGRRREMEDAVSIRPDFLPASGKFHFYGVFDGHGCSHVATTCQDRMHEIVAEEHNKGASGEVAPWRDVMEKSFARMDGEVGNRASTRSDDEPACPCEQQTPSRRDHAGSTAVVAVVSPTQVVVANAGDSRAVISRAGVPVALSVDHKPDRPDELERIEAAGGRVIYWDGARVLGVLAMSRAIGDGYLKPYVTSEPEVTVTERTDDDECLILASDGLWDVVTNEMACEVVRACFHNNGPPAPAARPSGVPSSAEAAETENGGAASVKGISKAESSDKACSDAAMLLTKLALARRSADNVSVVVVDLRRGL

[1] = biological target: OsPYL1 (Oryza sativa (japonica cultivar-group)); experiment: SEC; Superdex-200 HR10/300 GL, 25 mM HEPES pH 7.0, 150 mM NaCl; 500 µL OsPYL (OD280 = 0.75) applied; oligomerization state
[2] = biological target: OsPYL1 (Oryza sativa (japonica cultivar-group)); experiment: static light scattering; DAWN HELLOS II (Wyatt) at 18°C; OsPYLs about 2 mg/mL; calibrated with albumin monomer standard; oligomerization state
[3] = biological target: OsPYL1 (Oryza sativa (japonica cultivar-group)); experiment: AUC; sedimentation velocity at 4°C, 40,000 rpm; OsPYL proteins at OD280 = 0.75; absorbance at 280 nm; oligomerization state
[4] = biological target: OsPYL12 (Oryza sativa (japonica cultivar-group)); experiment: SEC; Superdex-200 HR10/300 GL, 25 mM HEPES pH 7.0, 150 mM NaCl; 500 µL OsPYL (OD280 = 0.75) applied; oligomerization state
[5] = biological target: OsPYL12 (Oryza sativa (japonica cultivar-group)); experiment: static light scattering; DAWN HELLOS II (Wyatt) at 18°C; OsPYLs about 2 mg/mL; calibrated with albumin monomer standard; oligomerization state
[6] = biological target: OsPYL12 (Oryza sativa (japonica cultivar-group)); experiment: AUC; sedimentation velocity at 4°C, 40,000 rpm; OsPYL proteins at OD280 = 0.75; absorbance at 280 nm; oligomerization state
[7] = biological target: the molecule itself; experiment: SEC; Superdex-200 HR10/300 GL, 25 mM HEPES pH 7.0, 150 mM NaCl; 500 µL OsPYL (OD280 = 0.75) applied; oligomerization state

B1: OsPYL3 (receptor)
chain: ERGRGGVGAEDARGGADEVAARERLEGVVRAHHTFPAAERAAGPGRRPTCTSLVAQRVDAPLAAVWPIVRGFANPQRYKHFIKSCELAAGDGATVGSVREVAVVSGLPASTSTERLEILDDDRHVLSFRVVGGDHRLRNYRSVTSVTEFSSPSSPPRPYCVVVESYVVDVPEGNTEEDTRMFTDTVVKLNLQKLAAVATSSSPPAAGNHH
stoichiometry N [7]: 2

B2: OsPYL2 (receptor, Oryza sativa (japonica cultivar-group))
chain: MEAHVERALREGLTEEERAALEPAVMAHHTFPPSTTTATTAAATCTSLVTQRVAAPVRAVWPIVRSFGNPQRYKHFVRTCALAAGDGASVGSVREVTVVSGLPASTSTERLEMLDDDRHIISFRVVGGQHRLRNYRSVTSVTEFQPPAAGPGPAPPYCVVVESYVVDVPDGNTAEDTRMFTDTVVKLNLQMLAAVAEDSSSASRRRD
notes: OsPYL2, ABA receptor (PYR1/PYL/RCAR ortholog) of Oryza sativa (japonica cultivar-group); Dimer when alone in solution (SEC, SLS, AU); stands with OsPP2C06 and ABA in the crystallised ternary complex; source: E. coli BL21 (DE3), vector pET-15b, purified (Ni-NTA, Source-15Q, Superdex-200); for the complex coexpressed with His6-OsPP2C06 (132-467) in E. coli BL21 (DE3) and purified with 0.2 mM (+)-ABA
stoichiometry N [7]: 2

More lines, main results first:

Kd (OsPYL2): ~31.3 µM
Molecule: CC1=CC(=O)CC(C)(C)C1(O)/C=C/C(C)=C\C(=O)O (stereo in doubt) [(+)-ABA]
Ser/Thr phosphatase assay, inhibition of OsPP2C09 by receptor (OsPYL11 (with OsPP2C09)): in the presence of ABA, all of the OsPYLs proteins could completely inhibit

stoichiometry N [1]: 2
stoichiometry N [2]: 2
stoichiometry N [3]: 2
Molecule: OsPYL1 (receptor)

stoichiometry N [4]: 2
stoichiometry N [5]: 2
stoichiometry N [6]: 2
Molecule: OsPYL12 (receptor)
